The results in this text go back to paper PMC8993905, “Functional control of a 0.5 MDa TET aminopeptidase by a flexible loop revealed by MAS NMR” (Nature Communications, 2022).

One may read the Km as the concentration of substrate that gives half-maximal velocity. The term kcat denotes the maximal rate divided by the concentration of active sites.

Where a chain is given by its changes, count along the chain named. Names and notes keep the numbering of the source.

Substrate in this data set: CC(C)C[C@H](N)C(=O)Nc1ccc([N+](=O)[O-])cc1
Kind of data set: purified protein. It is filed as biochemical, Pyrococcus horikoshii. As to conditions: pH 7.5 (20 mM Tris, 100 mM NaCl), 50 °C, 2.8% DMSO, 0.1-6.4 mM substrate.

Setting [1] is: Δloop mutant, loop printed as shortened to a two-residue β-turn and as lacking residues 120-138.
The mark [2] stands for this setting: mutant printed as Δ(122,126), loop shortened by one residue on each side of H123.

B1: TET2 (Pyrococcus horikoshii OT3; DEL120-138) (protein)
chain: MEVRNMVDYELLKKVVEAPGVSGYEFLGIRDVVIEEIKDYVDEVKVDKLGNVIAHKKGEGPKVMIAAHMDQIGLMVTHIEKNGFLRVAPIGGVDPKTLIAQRFKVWIDKGKFIYGVGASIFIDIGAESKEEAEDMGVKIGTVITWDGRLERLGKHRFVSIAFDDRIAVYTILEVAKQLKDAKADVYFVATVQEEVGLRGARTSAFGIEPDYGFAIDVTIAADIPGTPEHKQVTHLGKGTAIKIMDRSVICHPTIVRWLEELAKKHEIPYQLEILLGGGTDAGAIHLTKAGVPTGALSVPARYIHSNTEVVDERDVDATVELMTKALENIHELKI
notes: full length, 353 residues per subunit, pET41c in E. coli BL21(DE3), no tag mentioned (heat step, Resource Q, Superdex 200), 39 kDa subunit, 468 kDa homododecamer, two Zn per active site
Turning to B1, under setting [1], the Km was 1.3 ± 0.1 mM and the kcat amounted to 1.7 ± 1.0 s⁻¹.

B2: TET2 (Pyrococcus horikoshii OT3; DEL122-122/DEL126-126) (protein)
chain: MEVRNMVDYELLKKVVEAPGVSGYEFLGIRDVVIEEIKDYVDEVKVDKLGNVIAHKKGEGPKVMIAAHMDQIGLMVTHIEKNGFLRVAPIGGVDPKTLIAQRFKVWIDKGKFIYGVGASVPHIQPEDRKKAPDWDQIFIDIGAESKEEAEDMGVKIGTVITWDGRLERLGKHRFVSIAFDDRIAVYTILEVAKQLKDAKADVYFVATVQEEVGLRGARTSAFGIEPDYGFAIDVTIAADIPGTPEHKQVTHLGKGTAIKIMDRSVICHPTIVRWLEELAKKHEIPYQLEILLGGGTDAGAIHLTKAGVPTGALSVPARYIHSNTEVVDERDVDATVELMTKALENIHELKI
notes: as for B1
Take B2: under setting [2], the Km is 28.5 ± 2.3 mM and the kcat was 31.5 ± 8.1 s⁻¹.

B3: TET2 (Pyrococcus horikoshii OT3) (protein)
chain: MEVRNMVDYELLKKVVEAPGVSGYEFLGIRDVVIEEIKDYVDEVKVDKLGNVIAHKKGEGPKVMIAAHMDQIGLMVTHIEKNGFLRVAPIGGVDPKTLIAQRFKVWIDKGKFIYGVGASVPPHIQKPEDRKKAPDWDQIFIDIGAESKEEAEDMGVKIGTVITWDGRLERLGKHRFVSIAFDDRIAVYTILEVAKQLKDAKADVYFVATVQEEVGLRGARTSAFGIEPDYGFAIDVTIAADIPGTPEHKQVTHLGKGTAIKIMDRSVICHPTIVRWLEELAKKHEIPYQLEILLGGGTDAGAIHLTKAGVPTGALSVPARYIHSNTEVVDERDVDATVELMTKALENIHELKI
notes: as for B1
In the case of B3, the Michaelis-Menten constant (Km) was determined as 3.2 ± 0.1 mM and the kcat was determined as 14.1 ± 1.7 s⁻¹.

B4: TET2 (Pyrococcus horikoshii OT3; H123F) (protein)
chain: B3 chain with H123F
notes: as for B1
With B4, the Km is given as 14.4 ± 0.6 mM and the catalytic constant (kcat) worked out at 26.6 ± 4.1 s⁻¹.

B5: TET2 (Pyrococcus horikoshii OT3; H123K) (protein)
chain: B3 chain with H123K
notes: as for B1
For B5, the Km is reported as 17.0 ± 1.3 mM and the turnover number (kcat) turned out to be 16.9 ± 3.6 s⁻¹.

B6: TET2 (Pyrococcus horikoshii OT3; H123Y) (protein)
chain: B3 chain with H123Y
notes: as for B1
B6: the Km was 13.8 ± 0.6 mM and the turnover number (kcat) came to 15.7 ± 2.7 s⁻¹.
